The chains are these.
B1: SWI/SNF-related matrix-associated actin-dependent regulator of chromatin subfamily B member 1, residues 181 to 248; numbered along this chain, Q12824 (parent)
chain: SQPEVLVPIRLDMEIDGQKLRDAFTWNMNEKLMTPEMFSEILCDDLDLNPLTFVPAIASAIRQQIESY

± gives the uncertainty stated by the source.

Variants of B1 are the subject of this data set. The experiment in a line: abundance fitness (aPCA) (normalised: wild type 0, dead -1); higher = more abundant; growth selection in yeast, the domain comes from the species named. To be noted: Homo sapiens.
Take SQPEVLVPIRLDMEIDGQKLRDAFTWNMNEKLMTPEMFSEILCDDLLLNPLTFVPAIASAIRQQIESY [D47L]: the abundance fitness is -0.425 ± 0.056. The figure for SQPEVLVPIRLDMEIDGQKLRDAFTWNMNEKLMTPEMFSEILCDDLCLNPLTFVPAIASAIRQQIESY [D47C] is -0.305 ± 0.057; for SQPEVLVPIRLDMEIDGQKLRDAFTWNMNEKLMTPEMFSEILCDDLYLNPLTFVPAIASAIRQQIESY [D47Y] it is -0.401 ± 0.12; for SQPEVLVPIRLDMEIDGQKLRDAFTWNMNEKLMTPEMFSEILCDDLMLNPLTFVPAIASAIRQQIESY [D47M] it is -0.265 ± 0.05.

Consider SQPEVLVPIRLDMEIDGQKLRDAFTWNMNEKLMTPEMFSEILCDDLTLNPLTFVPAIASAIRQQIESY [D47T], for which the abundance fitness was -0.37 ± 0.059. The figure for SQPEVLVPIRLDMEIDGQKLRDAFTWNMNEKLMTPEMFSEILCDDLHLNPLTFVPAIASAIRQQIESY [D47H] is -0.018 ± 0.053. Next, SQPEVLVPIRLDMEIDGQKLRDAFTWNMNEKLMTPEMFSEILCDDLWLNPLTFVPAIASAIRQQIESY [D47W]: -0.507 ± 0.12; SQPEVLVPIRLDMEIDGQKLRDAFTWNMNEKLMTPEMFSEILCDDLNLNPLTFVPAIASAIRQQIESY [D47N]: -0.107 ± 0.069.

As to SQPEVLVPIRLDMEIDGQKLRDAFTWNMNEKLMTPEMFSEILCDDLSLNPLTFVPAIASAIRQQIESY [D47S], the abundance fitness is -0.101 ± 0.048.

SQPEVLVPIRLDMEIDGQKLRDAFTWNMNEKLMTPEMFSEILCDDLKLNPLTFVPAIASAIRQQIESY [D47K]: the abundance fitness came to 0.093 ± 0.063.

As for SQPEVLVPIRLDMEIDGQKLRDAFTWNMNEKLMTPEMFSEILCDDLPLNPLTFVPAIASAIRQQIESY [D47P], the abundance fitness was -0.799 ± 0.16. On to SQPEVLVPIRLDMEIDGQKLRDAFTWNMNEKLMTPEMFSEILCDDLVLNPLTFVPAIASAIRQQIESY [D47V], for which the abundance fitness is -0.542 ± 0.073.

In the case of SQPEVLVPIRLDMEIDGQKLRDAFTWNMNEKLMTPEMFSEILCDDLGLNPLTFVPAIASAIRQQIESY [D47G], the abundance fitness came to 0.053 ± 0.038. In the case of SQPEVLVPIRLDMEIDGQKLRDAFTWNMNEKLMTPEMFSEILCDDLDLNFLTFVPAIASAIRQQIESY [P50F], the abundance fitness was -0.285 ± 0.14.

Take SQPEVLVPIRLDMEIDGQKLRDAFTWNMNEKLMTPEMFSEILCDDLDLNMLTFVPAIASAIRQQIESY [P50M]: the abundance fitness is -1.03 ± 0.43.

On to SQPEVLVPIRLDMEIDGQKLRDAFTWNMNEKLMTPEMFSEILCDDLDLNILTFVPAIASAIRQQIESY [P50I], for which the abundance fitness was -1 ± 0.35. The figure for SQPEVLVPIRLDMEIDGQKLRDAFTWNMNEKLMTPEMFSEILCDDLDLNGLTFVPAIASAIRQQIESY [P50G] is -0.77 ± 0.047. Next, SQPEVLVPIRLDMEIDGQKLRDAFTWNMNEKLMTPEMFSEILCDDLDLNALTFVPAIASAIRQQIESY [P50A]: -0.292 ± 0.06. For SQPEVLVPIRLDMEIDGQKLRDAFTWNMNEKLMTPEMFSEILCDDLDLNHLTFVPAIASAIRQQIESY [P50H], the abundance fitness was -0.039 ± 0.082. Turning to SQPEVLVPIRLDMEIDGQKLRDAFTWNMNEKLMTPEMFSEILCDDLDLNLLTFVPAIASAIRQQIESY [P50L], the abundance fitness was -0.933 ± 0.17. Next, SQPEVLVPIRLDMEIDGQKLRDAFTWNMNEKLMTPEMFSEILCDDLDLNELTFVPAIASAIRQQIESY [P50E]: -0.818 ± 0.13. For SQPEVLVPIRLDMEIDGQKLRDAFTWNMNEKLMTPEMFSEILCDDLDLNDLTFVPAIASAIRQQIESY [P50D], the abundance fitness is -0.986 ± 0.2.

In the case of SQPEVLVPIRLDMEIDGQKLRDAFTWNMNEKLMTPEMFSEILCDDLDLNCLTFVPAIASAIRQQIESY [P50C], the abundance fitness was -0.751 ± 0.49. Take SQPEVLVPIRLDMEIDGQKLRDAFTWNMNEKLMTPEMFSEILCDDLDLNKLTFVPAIASAIRQQIESY [P50K]: the abundance fitness came out at 0.138 ± 0.053.

In the case of SQPEVLVPIRLDMEIDGQKLRDAFTWNMNEKLMTPEMFSEILCDDLDINPLTFVPAIASAIRQQIESY [L48I], the abundance fitness was -0.147 ± 0.14.

On to SQPEVLVPIRLDMEIDGQKLRDAFTWNMNEKLMTPEMFSEILCDDLDSNPLTFVPAIASAIRQQIESY [L48S], for which the abundance fitness was -0.659 ± 0.072. Next, SQPEVLVPIRLDMEIDGQKLRDAFTWNMNEKLMTPEMFSEILCDDLDCNPLTFVPAIASAIRQQIESY [L48C]: -0.374 ± 0.079. The figure for SQPEVLVPIRLDMEIDGQKLRDAFTWNMNEKLMTPEMFSEILCDDLDDNPLTFVPAIASAIRQQIESY [L48D] is -0.785 ± 0.2; for SQPEVLVPIRLDMEIDGQKLRDAFTWNMNEKLMTPEMFSEILCDDLDANPLTFVPAIASAIRQQIESY [L48A] it is -0.857 ± 0.1.

On to SQPEVLVPIRLDMEIDGQKLRDAFTWNMNEKLMTPEMFSEILCDDLDWNPLTFVPAIASAIRQQIESY [L48W], for which the abundance fitness was -0.888 ± 0.18. Turning to SQPEVLVPIRLDMEIDGQKLRDAFTWNMNEKLMTPEMFSEILCDDLDPNPLTFVPAIASAIRQQIESY [L48P], the abundance fitness is -0.873 ± 0.18. Next, SQPEVLVPIRLDMEIDGQKLRDAFTWNMNEKLMTPEMFSEILCDDLDGNPLTFVPAIASAIRQQIESY [L48G]: -0.66 ± 0.077.

As for SQPEVLVPIRLDMEIDGQKLRDAFTWNMNEKLMTPEMFSEILCDDLDYNPLTFVPAIASAIRQQIESY [L48Y], the abundance fitness was -0.649 ± 0.21. Take SQPEVLVPIRLDMEIDGQKLRDAFTWNMNEKLMTPEMFSEILCDDLDKNPLTFVPAIASAIRQQIESY [L48K]: the abundance fitness was -0.651 ± 0.12.

Consider SQPEVLVPIRLDMEIDGQKLRDAFTWNMNEKLMTPEMFSEILCDDLDRNPLTFVPAIASAIRQQIESY [L48R], for which the abundance fitness is -0.989 ± 0.21.

SQPEVLVPIRLDMEIDGQKLRDAFTWNMNEKLMTPEMFSEILCDDLDNNPLTFVPAIASAIRQQIESY [L48N]: the abundance fitness was -0.664 ± 0.17. For the variant SQPEVLVPIRLDMEIDGQKLRDAFTWNMNEKLMTPEMFSEILCDDLDFNPLTFVPAIASAIRQQIESY [L48F], the abundance fitness was -0.656 ± 0.17.

Consider SQPEVLVPIRLDMEIDGQKLRDAFTWNMNEKLMTPEMFSEILCDDLDENPLTFVPAIASAIRQQIESY [L48E], for which the abundance fitness was -0.678 ± 0.16.

With SQPEVLVPIRLDMEIDGQKLRDAFTWNMNEKLMTPEMFSEILCDDLDVNPLTFVPAIASAIRQQIESY [L48V], the abundance fitness is -0.554 ± 0.071. The figure for SQPEVLVPIRLDMEIDGQKLRDAFTWNMNEKLMTPEMFSEILCDDLDHNPLTFVPAIASAIRQQIESY [L48H] is -0.722 ± 0.18.

Values taken from the Human Domainome abundance scans (Beltran et al. 2025).
